Experimental data as given in publication PMC12262686 (bioRxiv, 2025).
Substitutions are numbered along the chain they refer to. Names and notes keep the numbering of the source. Values joined by “and” are separate entries in the source; they are usually repeats but may differ in a detail not shown here. Equal entries are not always repeated.

B1: Speckle-type POZ protein (SPOP), full-length, wild type, O43791 1-374 (natural protein)
chain: MSRVPSPPPPAEMSSGPVAESWCYTQIKVVKFSYMWTINNFSFCREEMGEVIKSSTFSSGANDKLKWCLRVNPKGLDEESKDYLSLYLLLVSCPKSEVRAKFKFSILNAKGEETKAMESQRAYRFVQGKDWGFKKFIRRDFLLDEANGLLPDDKLTLFCEVSVVQDSVNISGQNTMNMVKVPECRLADELGGLWENSRFTDCCLCVAGQEFQAHKAILAARSPVFSAMFEHEMEESKKNRVEINDVEPEVFKEMMCFIYTGKAPNLDKMADDLLAAADKYALERLKVMCEDALCSNLSVENAAEILILADLHSADQLKTQAVDFINYHASDVLETSGWKSMVVSHPHLVAEAYRSLASAQCPFLGPPRKRLKQS
B2: SPOP E47Q (natural protein)
chain: B1 chain with E47Q
B3: SPOP E50K (natural protein)
chain: B1 chain with E50K
B4: SPOP K129E (natural protein)
chain: B1 chain with K129E
B5: SPOP R221C (natural protein)
chain: B1 chain with R221C
B6: SPOP S96R, full-length (natural protein)
chain: B1 chain with S96R
B7: SPOP Y87F (natural protein)
chain: B1 chain with Y87F
B8: SPOP R121Q (natural protein)
chain: B1 chain with R121Q
B9: SPOP M48I (natural protein)
chain: B1 chain with M48I
B10: SPOP R45W (natural protein)
chain: B1 chain with R45W
B11: SPOP D140N (natural protein)
chain: B1 chain with D140N
B12: SPOP K134N, full-length (natural protein)
chain: B1 chain with K134N
B13: SPOP R70L (natural protein)
chain: B1 chain with R70L
B14: SPOP G128S (natural protein)
chain: B1 chain with G128S
B15: SPOP R99W (natural protein)
chain: B1 chain with R99W
B16: SPOP W131L (natural protein)
chain: B1 chain with W131L
B17: SPOP E47A (natural protein)
chain: B1 chain with E47A
B18: SPOP G128D, full-length (natural protein)
chain: B1 chain with G128D
B19: SPOP M117V (natural protein)
chain: B1 chain with M117V
B20: SPOP E78K, full-length (natural protein)
chain: B1 chain with E78K
B21: SPOP D77E, full-length (natural protein)
chain: B1 chain with D77E
B22: SPOP W131G (natural protein)
chain: B1 chain with W131G
B23: SPOP E47K, full-length (natural protein)
chain: B1 chain with E47K
B24: SPOP D130E (natural protein)
chain: B1 chain with D130E
B25: SPOP V51E, full-length (natural protein)
chain: B1 chain with V51E

Key:
[1] = molecular target: BRD3 peptide containing the main SPOP-binding motif of BRD3; assay: fluorescence polarisation
[2] = molecular target: T1, Speckle-type POZ protein (SPOP), full-length, wild type (human), O43791; assay: cryo-EM structure; conditions: remark: other sources report otherwise
T1 chain: B1 chain

negative-stain TEM = molecular target: the molecule itself; assay: negative-stain TEM

Molecule | binding result (negative-stain TEM) | other results
SPOP K134N, full-length (from UniProt O43791 1-374) (natural protein) | – | fold weaker binding than full-length WT [1]: 11 fold
SPOP MATH domain K134N (from UniProt O43791 31-161) (domain or fragment) | – | fold weaker binding than the WT MATH domain [1]: 4 fold
B1 | – | stoichiometry N [2]: 48 monomers and 56 monomers
B2 | binds | –
B3 | binds | –
B4 | binds | –
B5 | binds | –
B6 | binds | –
B7 | binds | –
B8 | binds | –
B9 | binds | –
B10 | binds | –
B11 | binds | –
B12 | binds | –
B13 | binds | –
B14 | binds | –
B15 | binds | –
B16 | binds | –
B17 | binds | –
B18 | binds | –
B19 | binds | –
B20 | binds | –
B21 | binds | –
B22 | binds | –
B23 | binds | –
B24 | binds | –
B25 | binds | –
